# Experimental data: the supplement of paper PMC12042874
# ± gives the uncertainty stated by the source.
# Assay: amyloid nucleation score (Sup35N fusion, yeast selection) (log enrichment); library NNK1; higher = more nucleation; inactive = no reads after selection
# Summary of the method: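 Random libraries were run with three technical output replicates. In each, psi-negative yeast expressing Sup35N fused to peptides of 20 random codons were induced 24 hours with 100 μM copper sulfate and grown 7 days at 30°C on medium lacking adenine and uracil, and input and output plasmid inserts were Illumina-sequenced. The nucleation score is the DiMSum log enrichment of output over input reads, centred on the mode score of non-aggregating sequences, and sequences under 100 input reads were excluded.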
row,Substance,amyloid nucleation score
1,TYHVSEV,-0.175 ± 0.24
2,TYNEDEVPCLMLASDVRFSS,0.372 ± 0.64
3,TYQTVSKKSEFIMPFGLCSN,-0.011 ± 0.17
4,TYRNHYCKDKAL,0.175 ± 0.75
5,TYRVLGWMYTCW,-0.809 ± 1.1
6,TYSGYFVLAIISPRLDRLFT,-1.1 ± 0.58
7,TYSRARAQSIMFVRLFKACL,0.643 ± 0.34
8,TYTGFYCVRKLILVRRVSVW,-0.897 ± 1.6
9,TYVSNNPKGNPTLHAYFSF,0.68 ± 0.97
10,TYWNVLNAVGQALPSIYGIG,0.955 ± 0.63
11,TYWQVARTSPSF,0.547 ± 0.33
12,TYWYSHINFLYYIASFVWSP,inactive
13,TYYAAMRDGFVYHTKGLMAS,-0.209 ± 1
14,VADAPMR,0.944 ± 0.9
15,VAIRTKPLYLDEYIFMDHMP,0.459 ± 0.68
16,VAITCLKIANGDRGVLQTLC,0.264 ± 0.86
17,VAPVEYICELTLWA,-1.22 ± 2.7
18,VARTW,0.602 ± 0.57
19,VATYLLDHVYLNSCQSHCAM,1 ± 0.35
20,VAWSPLRSSKPGTLSTVGDT,0.83 ± 1.1
21,VCHAVRISISSSASTLAE,-0.122 ± 0.33
22,VCIECTVAVKFHGYMRHSCC,1.09 ± 0.54
23,VCLLHNIVKGFARYINSHK,0.423 ± 0.5
24,VCLVVEIG,1.04 ± 0.93
25,VCSRLDSEQHDHECASQELM,0.106 ± 0.99

row,Substance,amyloid nucleation score
1,VCTCIFRFQFLILCVRVCEL,0.293 ± 0.85
2,VCVQILAASTWM,0.844 ± 0.42
3,VCWLGIKCVRVISNWLCAQS,-1.04 ± 1.6
4,VCYAKTAVFSMCGFIWSR,0.163 ± 0.77
5,VDGGMLSHYYYC,0.258 ± 0.23
6,VDGLHLNSYYEPVSMMSIVV,-0.336 ± 0.43
7,VDISIVWDVPHQVLTGGFY,-0.531 ± 0.29
8,VDLILRRFEMRSDSLFGLWE,-0.481 ± 0.58
9,VDNNARDTSVGSALENMWVL,1.16 ± 0.62
10,VDPAD,0.553 ± 0.43
11,VDPYQVNYLNKLVTENYRVS,0.097 ± 0.33
12,VDRFEVLTYLKE,-0.175 ± 1
13,VDRVGIQYVLEWCSRRSGQV,0.04 ± 1.4
14,VDVHVGCRTIRL,0.034 ± 0.32
15,VECVSVQRFGAQCLSCYPSW,-0.07 ± 0.55
16,VEFYRYFGWCPNYLPQHQWL,-0.148 ± 0.56
17,VENTPSCSDISSDLMGREIH,-0.87 ± 0.35
18,VEPLCGTRFACRLNAFKTTG,-0.097 ± 0.39
19,VEVSWAAQST,0.506 ± 0.91
20,VEWASRDTHWRSLSLIIYLG,inactive
21,VFAMPYYSCGVLWNRGNW,0.566 ± 0.48
22,VFDAKGLNAHFNEVNVVYIR,4.77 ± 0.062
23,VFFGVVQLICDGVKEIFPNL,4 ± 0.1
24,VFFSYINCLRF,0.218 ± 0.45
25,VFGHIGIDRGI,2.74 ± 0.22

row,Substance,amyloid nucleation score
1,VFGSCWYLYFVYLPTNRFRM,-0.134 ± 0.3
2,VFGVPVTCGGRPVFLIKVVG,-0.794 ± 1.4
3,VFHVAKSRRVTHPSILISL,1.53 ± 0.74
4,VFLMLEVCLMV,0.362 ± 0.72
5,VFLSIGTERMILLIVWHCLN,-0.34 ± 0.57
6,VFLVGMFLIRRVAVN,0.72 ± 0.87
7,VFNHTVPQSIRFYTYNRSSR,3.87 ± 0.078
8,VFRFRGCF,1.62 ± 0.38
9,VFTIWSMFFIVRFNLWWKCA,0.081 ± 0.49
10,VFVVDIFLFVMNCPYDPLSR,2.6 ± 0.066
11,VFYLCFTSQYYLSAGTVNAW,4.99 ± 0.064
12,VFYVFWYFRLCI,0.035 ± 0.2
13,VGFEGHS,-0.58 ± 0.6
14,VGFYWNGWTTKGCWDNSWVL,0.382 ± 0.55
15,VGHSEIKMTMTRLADLGVCE,0.612 ± 0.62
16,VGHYGRETHLCSWCQIANGA,inactive
17,VGLERSWGEAKAVNMQRHGS,0.346 ± 0.81
18,VGLGYYNSSK,0.91 ± 0.51
19,VGPAANHIGHIVRWCRPGGP,0.33 ± 0.5
20,VGPRGSGPWGGVCLCGCSKE,1.11 ± 0.51
21,VGRHALGTSRGKRL,-0.307 ± 0.67
22,VGSRLQRHGDGTGSLGLSWC,inactive
23,VGSTLYHLRKDMSTLSPGMY,0.012 ± 0.34
24,VGVGFIHNLGTLEIQVT,-0.359 ± 0.36
25,VGVHRHSSWWEFAYCASRQ,-0.537 ± 0.71

row,Substance,amyloid nucleation score
1,VGWLRFIRWYDPRLENWRTG,0.235 ± 0.78
2,VGWSMWNMIRMMVVPVAGPG,0.253 ± 0.35
3,VHLSGFVSLNLTVVSIRCIA,2.06 ± 0.31
4,VHNCMVFLLKFIDSRHFIVI,-0.292 ± 1.6
5,VHSGTKEKGF,1.05 ± 0.54
6,VHSVLKWLRWDSIPCIVLIR,-0.487 ± 0.32
7,VHVFSCLCPLLGSMIFLWMV,-0.871 ± 0.68
8,VICSHLVSITYYLY,3.59 ± 0.057
9,VIHRIIDVLF,-0.06 ± 0.57
10,VIHTRGNWSKRHVMIWISES,-0.016 ± 1.2
11,VIKDFNDNYTGFRHYSKILI,-0.634 ± 1.7
12,VIKFWSQ,0.536 ± 0.77
13,VILECNVAGVGELAQCQCAG,0.986 ± 0.59
14,VILFYSR,4.49 ± 0.11
15,VILRIIILYCLYHVWISGM,0.177 ± 0.34
16,VINCNWKFSFFFALVNEGGV,6.554 ± 0.048
17,VIQRTYCGRVLNLHALI,0.245 ± 0.57
18,VISGSDVLRYPRYSNAAFRT,inactive
19,VISINSVLACVYTIVMR,-0.1 ± 0.73
20,VISMTKMLAWFTGLVYGYYG,-0.21 ± 0.35
21,VITNHDDE,0.51 ± 0.47
22,VITTNLTCFALSYAAVFISK,3.69 ± 0.078
23,VIVCIEAAAETYSTGQSLDA,-0.15 ± 0.3
24,VKGSGGGWFERNSGAPRKVF,1.03 ± 0.38
25,VKKLQVA,1.11 ± 0.74

row,Substance,amyloid nucleation score
1,VKLDIVFLMVFGPLCSESPF,1.83 ± 0.24
2,VKTINFISQLSCWCKRPFRK,8.673 ± 0.06
3,VKVIKLRHSLGTFFCSAQLQ,inactive
4,VKYLVIL,-0.618 ± 0.47
5,VLCAGLPWYTELVRFSYWAD,-0.642 ± 0.56
6,VLDVVVCSSWGDLKRNLRPC,3.29 ± 0.11
7,VLGRITAIFSVCGLVAVRDN,5.63 ± 0.076
8,VLIGIWLHLGHFEPALSM,-0.133 ± 0.53
9,VLLGELIL,0.434 ± 0.56
10,VLLRKVKRLNRYHMSTGGL,inactive
11,VLRTGVH,1.25 ± 0.66
12,VLSAGVCFMTRVRSVFDGVH,2.14 ± 0.24
13,VLSRSMH,-0.206 ± 1.7
14,VLVRAWTLDCCLLFVMMVVS,0.558 ± 0.46
15,VLWPLTISLWC,-0.236 ± 0.51
16,VLYIGYYCQKSMEVLVTRSR,1.06 ± 0.69
17,VMADYVDNSHMVVMQTCVCM,7.667 ± 0.061
18,VMAPERST,-0.905 ± 1.6
19,VMESTRNFSKVMSCSLFRFR,-0.684 ± 0.62
20,VMFYSLHFCGVEDFFTGAER,0.834 ± 0.57
21,VMHLWLVYCHTTVS,0.755 ± 0.73
22,VMMRTSSARMGLLLDVTCGN,0.058 ± 0.61
23,VMRVAYNDT,0.416 ± 0.36
24,VMSKSNPIAV,0.24 ± 0.54
25,VMSSMMWYSYHMFHPYNAFE,1.28 ± 0.79

row,Substance,amyloid nucleation score
1,VMVRTCACFIR,0.883 ± 0.51
2,VNDLSCIGVGGDAKDNREGN,1.34 ± 0.48
3,VNGWARSMGGFLSCNSQRFG,-0.221 ± 0.65
4,VNLNVFLRR,0.059 ± 0.45
5,VNPYMMLAQY,0.748 ± 0.38
6,VNSKFMGKY,0.192 ± 0.39
7,VNVFRNLFVTTDLWLSSTQN,-0.437 ± 0.66
8,VNVITGWCAQELVVRAILEI,0.341 ± 0.4
9,VPENLVKMSEV,0.279 ± 0.71
10,VPMLDLGKVYNRSACP,inactive
11,VPNVGYI,0.369 ± 0.54
12,VPTSSFGGFVYVGVRVMCS,-0.487 ± 0.8
13,VPYQCDKTKHFVRKVLILGA,1.81 ± 0.58
14,VQAAGYITLATVALWSTSMQ,2.02 ± 0.31
15,VQGLIQVSVYDRVAGCWHRI,-0.83 ± 0.66
16,VQGYKVRLSGRNFGCNCASK,-1.85 ± 1.8
17,VQGYTYGGCDGFMEWLGKLI,-0.295 ± 0.61
18,VQIFEKLVQRSSVRQSENLK,0.037 ± 0.93
19,VQISQETFYNWLFVPAVSVP,-0.282 ± 0.38
20,VQIWAAELMTDRRK,0.436 ± 1.2
21,VQPDDLARTGRLQLVLLVWN,-0.883 ± 0.92
22,VRCLGWVDHERVRDLCIHSG,-0.414 ± 0.31
23,VRCLLRYLLLESPQFINV,1.7 ± 0.36
24,VRDSGRIGMFKMGKV,-0.824 ± 0.88
25,VRFFAPPWTWWLC,0.087 ± 0.44

row,Substance,amyloid nucleation score
1,VRKSVSTFT,0.055 ± 0.37
2,VRLCLVLLESDLLTGTVGIG,-1.02 ± 1.2
3,VRLFV,2.14 ± 0.65
4,VRLNQLDNSLAVRSATNPGA,0.524 ± 0.65
5,VRMDHIRTKPPLHAIVAPQP,-1.68 ± 2.4
6,VRMVQEMFRRRTLEELAMGA,0.447 ± 0.68
7,VRRGTVFAVGTCYIGRWFAV,1.21 ± 0.97
8,VRRIAWSNGWCRGIGGRSVL,-0.179 ± 0.39
9,VRRQFVPKSYLCCESYFNEV,0.32 ± 0.56
10,VRSYDRMFYRDPQDLL,-0.077 ± 0.22
11,VRTLLWSS,-1.55 ± 2.4
12,VRYMWFAAGTREVTWSAFFM,-0.014 ± 0.32
13,VSANICNRIVDGHFSLFYLN,-0.73 ± 0.37
14,VSETAFLNTNKWGPKCLMWN,-1.42 ± 1
15,VSGAKLAFN,-0.46 ± 1.6
16,VSGLAGPEM,0.412 ± 0.56
17,VSGTVLTIEYCPY,0.844 ± 0.27
18,VSIFPFLTCLVVNLMLGGPV,4.26 ± 0.11
19,VSLLSVWFDTHYIWSITGVD,-0.247 ± 0.45
20,VSLMCVALYKQISTRI,0.102 ± 0.51
21,VSLRAAWNLC,0.606 ± 0.71
22,VSMRN,0.305 ± 0.21
